Test results published in publication PMC2782912.
pKd: −log10 of the molar value.

Key:
[1] = target: HIV-1 capsid protein C-terminal domain, CA-CTD (Met144-Leu231) (HIV-1); experiment: NMR titration
[2] = target: HIV-1 capsid protein CA (Human immunodeficiency virus 1) (UniProt O93182); conditions: cited from earlier work

HIV-1 capsid protein CA, sequence (O93182 133-363): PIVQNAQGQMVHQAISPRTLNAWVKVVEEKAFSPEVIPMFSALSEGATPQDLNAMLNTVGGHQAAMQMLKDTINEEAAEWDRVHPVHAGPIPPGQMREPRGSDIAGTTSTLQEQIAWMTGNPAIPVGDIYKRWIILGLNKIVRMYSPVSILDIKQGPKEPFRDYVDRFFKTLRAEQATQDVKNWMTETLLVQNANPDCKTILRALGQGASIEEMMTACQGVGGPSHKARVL

Substance	pKd [1]	pKd [2]
HIV-1 capsid protein C-terminal domain, CA-CTD (Met144-Leu231) (domain or fragment)	5.01	–
HIV-1 capsid protein CA (from UniProt O93182)	–	4.74
